To fix the notation:
T1: glucose-dependent insulinotropic peptide (gastric inhibitory polypeptide) receptor (human, UniProt P48546 22-466)
T1 sequence (looked up): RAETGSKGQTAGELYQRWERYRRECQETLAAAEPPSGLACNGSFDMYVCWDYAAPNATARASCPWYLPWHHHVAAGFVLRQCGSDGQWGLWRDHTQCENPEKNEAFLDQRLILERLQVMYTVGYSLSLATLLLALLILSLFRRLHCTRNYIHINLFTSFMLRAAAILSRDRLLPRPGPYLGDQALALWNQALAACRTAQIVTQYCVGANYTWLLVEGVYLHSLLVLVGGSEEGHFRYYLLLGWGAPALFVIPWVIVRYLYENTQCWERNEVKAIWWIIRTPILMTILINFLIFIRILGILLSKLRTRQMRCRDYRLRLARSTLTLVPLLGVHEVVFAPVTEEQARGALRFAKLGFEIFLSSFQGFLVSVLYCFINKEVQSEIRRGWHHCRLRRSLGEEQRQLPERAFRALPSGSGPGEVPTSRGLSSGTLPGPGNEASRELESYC

B1: SEQ ID NO 8 (peptide)
peptide: H[Aib]EGS[αMeF]SSDVSS[αMeF]LEGEAA[αMeK]E[αMeF]IA[αMeF]VV[αMeK]GG-NH2
modifications: N-terminus assumed
SMILES: CC[C@H](C)[C@H](NC(=O)[C@](C)(Cc1ccccc1)NC(=O)[C@H](CCC(=O)O)NC(=O)[C@](C)(CCCCN)NC(=O)[C@H](C)NC(=O)[C@H](C)NC(=O)[C@H](CCC(=O)O)NC(=O)CNC(=O)[C@H](CCC(=O)O)NC(=O)[C@H](CC(C)C)NC(=O)[C@](C)(Cc1ccccc1)NC(=O)[C@H](CO)NC(=O)[C@H](CO)NC(=O)[C@@H](NC(=O)[C@H](CC(=O)O)NC(=O)[C@H](CO)NC(=O)[C@H](CO)NC(=O)[C@](C)(Cc1ccccc1)NC(=O)[C@H](CO)NC(=O)CNC(=O)[C@H](CCC(=O)O)NC(=O)C(C)(C)NC(=O)[C@@H](N)Cc1c[nH]cn1)C(C)C)C(=O)N[C@@H](C)C(=O)N[C@@](C)(Cc1ccccc1)C(=O)N[C@H](C(=O)N[C@H](C(=O)N[C@@](C)(CCCCN)C(=O)NCC(=O)NCC(N)=O)C(C)C)C(C)C

Starred links: 1 amine or outer side, 2 acyl side, 3 side chain; linkers in the order of their positions; H or OH if unused. Non-standard residues stand in square brackets, D forms with d. Groups on a side chain read outwards from the residue. Primed or numbered codes have the meaning given here. No end group written: not given here. *: point of attachment. γGlu = O=C(O)[C@H](CCC(=O)[*:2])N[*:1]; Stearoyl = CCCCCCCCCCCCCCCCCC(=O)*; αMeF = C[C@](N)(Cc1ccccc1)C(=O)O; αMeK = C[C@](N)(CCCCN)C(=O)O; αMeS = C[C@](N)(CO)C(=O)O; PEG2′ = not defined here; Aib = CC(C)(N)C(=O)O

Sequence of glucagon receptor (P47871 26-477): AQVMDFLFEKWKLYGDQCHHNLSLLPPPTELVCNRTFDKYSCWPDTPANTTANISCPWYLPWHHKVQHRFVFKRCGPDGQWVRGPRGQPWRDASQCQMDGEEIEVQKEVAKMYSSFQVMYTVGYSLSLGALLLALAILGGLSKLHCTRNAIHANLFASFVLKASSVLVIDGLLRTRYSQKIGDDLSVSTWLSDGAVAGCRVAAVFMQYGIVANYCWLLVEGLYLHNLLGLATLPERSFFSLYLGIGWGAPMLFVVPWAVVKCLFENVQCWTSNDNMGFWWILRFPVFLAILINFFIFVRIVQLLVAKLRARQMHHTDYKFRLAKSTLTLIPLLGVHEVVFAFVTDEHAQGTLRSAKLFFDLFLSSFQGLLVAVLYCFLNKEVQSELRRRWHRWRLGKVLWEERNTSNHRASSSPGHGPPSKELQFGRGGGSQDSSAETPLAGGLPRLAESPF

The target in the first assay is T1, glucose-dependent insulinotropic …. Nature of the assay: cell-based or functional assay.
For the molecule H[Aib]EGS[αMeF]TSDVSK([PEG2′-PEG2′-γGlu-Stearoyl])YLEGEAAEE[αMeF]IA[αMeF]VVEGG-NH2 [SEQ ID NO 58], the “Primary assay EC50 (cAMP), n1” value turned out to be 25 nM and the “Primary assay EC50 (cAMP), n2” value came out at 25 nM.

With B1, the “Primary assay EC50 (cAMP), n1” value is 23 nM and the “Primary assay EC50 (cAMP), n2” value came out at 23 nM.

As to H[Aib]EGS[αMeF]TSDVSK([PEG2′-PEG2′-γGlu-Stearoyl])YLEGEAA[Aib]E[αMeF]IA[αMeF]VVEGG-NH2 [SEQ ID NO 59], the “Primary assay EC50 (cAMP), n1” value worked out at 25.6 nM and the “Primary assay EC50 (cAMP), n2” value came out at 25.6 nM.

On to H[Aib]EGS[αMeF]TSDVSK([PEG2′-PEG2′-PEG2′-Stearoyl])YLEGEAA[αMeK]E[αMeF]IA[αMeF]VVEGG-NH2 [SEQ ID NO 64], for which the “Primary assay EC50 (cAMP), n1” value stood at 25 nM and the “Primary assay EC50 (cAMP), n2” value was determined as 25 nM.

As for H[Aib]EGS[αMeF]TSDV[αMeS]S[αMeF]LEGEAAK([PEG2′-PEG2′-PEG2′-Stearoyl])E[αMeF]IAWVV[αMeK]GG-NH2 [SEQ ID NO 55], the “Primary assay EC50 (cAMP), n1” value is 25 nM and the “Primary assay EC50 (cAMP), n2” value stood at 25 nM.

Regarding H[Aib]EGS[αMeF]TSDV[αMeS]S[αMeF]LEGEAAK([PEG2′-PEG2′-PEG2′-Stearoyl])E[αMeF]IA[αMeF]VVKGG-NH2 [SEQ ID NO 56], the “Primary assay EC50 (cAMP), n1” value was determined as 26 nM and the “Primary assay EC50 (cAMP), n2” value was determined as 26 nM.

Regarding H[Aib]EGS[αMeF]TSDVSK([PEG2′-PEG2′-γGlu-Stearoyl])YLEGEAAKE[αMeF]IA[αMeF]VVEGG-NH2 [SEQ ID NO 57], the “Primary assay EC50 (cAMP), n1” value came to 25 nM and the “Primary assay EC50 (cAMP), n2” value is 25 nM.

For another assay, the target named is GLP-1 receptor (human, UniProt P43220 24-463). Nature of the assay: cell-based or functional assay.
For the molecule H[Aib]EGS[αMeF]TSDVSK([PEG2′-PEG2′-γGlu-Stearoyl])YLEGEAAEE[αMeF]IA[αMeF]VVEGG-NH2 [SEQ ID NO 58], the “Primary assay EC50 (cAMP), Mean pM GLP-1R” value was determined as 4720 pM; the “Primary assay EC50 (cAMP), n1” value came out at 5.2 nM; the “Primary assay EC50 (cAMP), n2” value was found to be 4.3 nM.

As to B1, the “Primary assay EC50 (cAMP), Mean pM GLP-1R” value was determined as 88 pM; the “Primary assay EC50 (cAMP), n1” value is 0.071 nM; the “Primary assay EC50 (cAMP), n2” value is 0.11 nM.

H[Aib]EGS[αMeF]TSDVSK([PEG2′-PEG2′-γGlu-Stearoyl])YLEGEAA[Aib]E[αMeF]IA[αMeF]VVEGG-NH2 [SEQ ID NO 59]: the “Primary assay EC50 (cAMP), Mean pM GLP-1R” value was 211 pM; the “Primary assay EC50 (cAMP), n1” value turned out to be 0.243 nM; the “Primary assay EC50 (cAMP), n2” value is 0.179 nM.

Consider H[Aib]EGS[αMeF]TSDVSK([PEG2′-PEG2′-PEG2′-Stearoyl])YLEGEAA[αMeK]E[αMeF]IA[αMeF]VVEGG-NH2 [SEQ ID NO 64], for which the “Primary assay EC50 (cAMP), Mean pM GLP-1R” value came to 1.3 pM; the “Primary assay EC50 (cAMP), n1” value worked out at 0.0014 nM; the “Primary assay EC50 (cAMP), n2” value was 0.0012 nM.

In the case of H[Aib]EGS[αMeF]TSDV[αMeS]S[αMeF]LEGEAAK([PEG2′-PEG2′-PEG2′-Stearoyl])E[αMeF]IAWVV[αMeK]GG-NH2 [SEQ ID NO 55], the “Primary assay EC50 (cAMP), Mean pM GLP-1R” value worked out at 1.8 pM; the “Primary assay EC50 (cAMP), n1” value was determined as 0.0014 nM; the “Primary assay EC50 (cAMP), n2” value is 0.0023 nM.

For the molecule H[Aib]EGS[αMeF]TSDV[αMeS]S[αMeF]LEGEAAK([PEG2′-PEG2′-PEG2′-Stearoyl])E[αMeF]IA[αMeF]VVKGG-NH2 [SEQ ID NO 56], the “Primary assay EC50 (cAMP), Mean pM GLP-1R” value was 3.2 pM; the “Primary assay EC50 (cAMP), n1” value amounted to 0.0029 nM; the “Primary assay EC50 (cAMP), n2” value is 0.0035 nM.

For the molecule H[Aib]EGS[αMeF]TSDVSK([PEG2′-PEG2′-γGlu-Stearoyl])YLEGEAAKE[αMeF]IA[αMeF]VVEGG-NH2 [SEQ ID NO 57], the “Primary assay EC50 (cAMP), Mean pM GLP-1R” value was found to be 153 pM; the “Primary assay EC50 (cAMP), n1” value is 0.14 nM; the “Primary assay EC50 (cAMP), n2” value worked out at 0.17 nM.

The next assay has as its target glucagon receptor (human, UniProt P47871 26-477). As to the kind of experiment: cell-based or functional assay.
As to H[Aib]EGS[αMeF]TSDVSK([PEG2′-PEG2′-γGlu-Stearoyl])YLEGEAAEE[αMeF]IA[αMeF]VVEGG-NH2 [SEQ ID NO 58], the “Primary assay EC50 (cAMP), n1” value turned out to be 25 nM and the “Primary assay EC50 (cAMP), n2” value was found to be 25 nM.

Regarding B1, the “Primary assay EC50 (cAMP), n1” value amounted to 7.8 nM and the “Primary assay EC50 (cAMP), n2” value was 12 nM.

With H[Aib]EGS[αMeF]TSDVSK([PEG2′-PEG2′-γGlu-Stearoyl])YLEGEAA[Aib]E[αMeF]IA[αMeF]VVEGG-NH2 [SEQ ID NO 59], the “Primary assay EC50 (cAMP), n1” value was 25.6 nM and the “Primary assay EC50 (cAMP), n2” value was found to be 25.6 nM.

H[Aib]EGS[αMeF]TSDVSK([PEG2′-PEG2′-PEG2′-Stearoyl])YLEGEAA[αMeK]E[αMeF]IA[αMeF]VVEGG-NH2 [SEQ ID NO 64]: the “Primary assay EC50 (cAMP), n1” value came out at 25 nM and the “Primary assay EC50 (cAMP), n2” value worked out at 25 nM.

Regarding H[Aib]EGS[αMeF]TSDV[αMeS]S[αMeF]LEGEAAK([PEG2′-PEG2′-PEG2′-Stearoyl])E[αMeF]IAWVV[αMeK]GG-NH2 [SEQ ID NO 55], the “Primary assay EC50 (cAMP), n1” value came to 25 nM and the “Primary assay EC50 (cAMP), n2” value was 25 nM.

In the case of H[Aib]EGS[αMeF]TSDV[αMeS]S[αMeF]LEGEAAK([PEG2′-PEG2′-PEG2′-Stearoyl])E[αMeF]IA[αMeF]VVKGG-NH2 [SEQ ID NO 56], the “Primary assay EC50 (cAMP), n1” value came out at 26 nM and the “Primary assay EC50 (cAMP), n2” value came out at 26 nM.

As for H[Aib]EGS[αMeF]TSDVSK([PEG2′-PEG2′-γGlu-Stearoyl])YLEGEAAKE[αMeF]IA[αMeF]VVEGG-NH2 [SEQ ID NO 57], the “Primary assay EC50 (cAMP), n1” value worked out at 25 nM and the “Primary assay EC50 (cAMP), n2” value stood at 25 nM.

For the origin of these results see patent US20200079833A1 (AstraZeneca / MedImmune, published 2020).
